Source: paper PMC12144180 (Nature Communications, 2025)

T1: RNA polymerase I subunit A135 (S. cerevisiae, UniProt P22138 1-1203)
T1 sequence: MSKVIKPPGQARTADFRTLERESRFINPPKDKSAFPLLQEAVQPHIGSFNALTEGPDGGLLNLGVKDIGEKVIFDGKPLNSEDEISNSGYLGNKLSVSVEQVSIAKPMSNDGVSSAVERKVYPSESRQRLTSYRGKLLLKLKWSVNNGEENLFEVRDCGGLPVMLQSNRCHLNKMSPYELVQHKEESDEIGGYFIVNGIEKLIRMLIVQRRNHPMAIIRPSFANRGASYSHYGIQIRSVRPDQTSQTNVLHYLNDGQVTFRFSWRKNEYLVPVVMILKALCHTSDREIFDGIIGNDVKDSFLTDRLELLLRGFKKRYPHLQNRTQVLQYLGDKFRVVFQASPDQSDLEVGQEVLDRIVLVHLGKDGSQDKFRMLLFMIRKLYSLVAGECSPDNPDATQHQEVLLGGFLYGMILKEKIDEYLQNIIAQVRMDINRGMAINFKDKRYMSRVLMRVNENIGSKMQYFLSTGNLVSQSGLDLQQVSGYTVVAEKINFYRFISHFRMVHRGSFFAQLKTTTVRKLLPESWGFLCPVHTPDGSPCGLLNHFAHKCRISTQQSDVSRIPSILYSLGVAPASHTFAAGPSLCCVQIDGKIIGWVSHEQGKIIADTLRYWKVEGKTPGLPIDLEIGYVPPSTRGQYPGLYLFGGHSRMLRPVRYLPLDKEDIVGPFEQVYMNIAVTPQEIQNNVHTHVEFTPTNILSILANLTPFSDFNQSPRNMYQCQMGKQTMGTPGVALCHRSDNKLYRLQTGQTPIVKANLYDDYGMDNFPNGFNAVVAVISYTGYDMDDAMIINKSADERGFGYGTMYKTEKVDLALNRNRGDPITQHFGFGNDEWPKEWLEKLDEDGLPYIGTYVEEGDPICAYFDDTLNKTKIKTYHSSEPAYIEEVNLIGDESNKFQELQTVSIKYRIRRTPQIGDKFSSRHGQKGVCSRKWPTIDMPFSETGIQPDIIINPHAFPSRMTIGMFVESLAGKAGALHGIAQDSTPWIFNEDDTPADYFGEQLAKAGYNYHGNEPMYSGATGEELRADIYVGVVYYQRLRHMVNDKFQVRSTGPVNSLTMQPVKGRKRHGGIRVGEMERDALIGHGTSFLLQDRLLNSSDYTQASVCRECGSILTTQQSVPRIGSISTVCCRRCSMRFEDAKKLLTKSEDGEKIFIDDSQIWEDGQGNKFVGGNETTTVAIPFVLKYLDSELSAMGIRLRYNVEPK


Biological target: T1, RNA polymerase I subunit A135
Assay: cryo-EM structure

Row | binding result | Binder
1 | binds | RNA polymerase I subunit A12 (natural protein) MSVVGSLIFCLDCGDLLENPNAVLGSNVECSQCKAIYPKSQFSNLKVVTTTADDAFPSSLRAKKSVVKTSLKKNELKDGATIKEKCPQCGNEEMNYHTLQLRSADEGATVFYTCTSCGYKFRTNN
2 | binds | A49/A34.5 heterodimer of RNA polymerase I (complex) chain 1: MSVKRSVSEIEIESVQDQPSVAVGSFFKGFRAPSDTTFDLYKKKKSEKDEFVLHGENERLEYEGYTDSSSQASNQYVVGLFNPEKKSIQLYKAPVLVSKVVSKSSKNLRGPKIKSKSDTRPSALRNALGEAFGTKKAKKAIADLERNRIDSDKLTDSAIDIVDSVRTASKDLPTRAQLDEITSNDRPTPLANIDATDVEQIYPIESIIPKKELQFIRVSSILKEADKEKKLELFPYQNNSKYVAKKLDSLTQPSQMTKLQLLYYLSLLLGVYENRRVNNKTKLLERLNSPPEILVDGILSRFTVIKPGQFGRSKDRSYFIDPQNEDKILCYILAIIMHLDNFIVEITPLAHELNLKPSKVVSLFRVLGAIVKGATVAQAEAFGIPKSTAASYKIATMKVPFKLPEMTRRGRGPRR chain 2: MSKLSKDYVSDSDSDDEVISNEFSIPDGFKKCKHLKNFPLNGDNKKKAKQQQVWLIKFPSNVDISKLKSLPVDFESSTTMTIDKHDYKIMDDTDIESSLTQDNLSNMTLLVPSESKESLKIASTAKDNAPLQFDKVFSVSETAKIPAIDYSKVRVPRKDVPKVEGLKLEHFATGYDAEDFHVAEEVKENKKEPKKRSHHDDEEESSEKKKKKKEKREKREKKDKKDKKKKHRD
